Test results from patent US20140298494A1, “ANIMAL MODEL OF AUTISM” (Beth Israel Deaconess Medical Center, Inc., priority 2011, published 2014).
“Also recorded” adds a separate entry of the source.

Key:
non-NMDA receptor = assay: inhibition of minimal-stimulation single fiber EPSC amplitude by γ-DGG in layer 2/3 barrel cortex pyramidal neurons (brain slices); format: cell-based, mouse; conditions: γ-DGG 300 μM; Ube3a (2×) transgenic vs wild-type neurons; P=0.0127, n=7-8
Protocol: The vesicle glutamate content was estimated by the relative inhibition of mean single fiber EPSC amplitude by the fast off-rate, non-NMDA receptor blocker γ-DGG (300 μM). The higher the percentage inhibition by γ-DGG, the lower the concentration of synaptic glutamate. Detailed protocols are available in the Extended Experimental Procedures.
The vesicle glutamate content was estimated by the relative inhibition of mean single fiber EPSC amplitude by the fast off-rate, non-NMDA receptor blocker γ-DGG (300 μM). The higher the percentage inhibition by γ-DGG, the lower the concentration of synaptic glutamate (see ref. 21). To selectively stimulate a single fiber in layer 2/3 of the barrel cortex, minimal stimuli were delivered through ACSF-filled bipolar glass electrodes pulled from 2.0 mm OD dual barrel theta capillary glass (Warner Instruments). The tip of the stimulating electrodes is about 2 μm. To establish a minimal stimulation, we first sought for the highest stimulus that gave all failures. […] To acquire a reasonable number of EPSCs from 40-100 trials in both baseline and γ-DGG conditions at 0.3 Hz, we adjusted the stimulation intensity to give about 10% failures (WT: 9.7±2.4%, n=8; 1×: 9.7±3.4%, n=8; 2×: 11.6±4.6%, […]; F(2, 21)=0.106, P=0.90). Under this failure rate, the calculated quantal content was about 2. […]

recombinant Arc [1] = test system: recombinant Arc
recombinant Arc [2] = assay: in vitro target protein degradation (ubiquitination) assay with immunoprecipitated Ube3a-FLAG; format: biochemical; conditions: FLAG antibody immunoprecipitate from Tg cortical lysate; control Wt 1.26±0.04; P=0.01; n=3 independent in vitro assays
Protocol: Ube3a expression was confirmed by western blot of cortical lysates using both anti-FLAG M2 antibody (Sigma) and anti-Ube3a (BD Biosciences). The ubiquitin ligase activity of Ube3a was assayed by an in vitro target protein degradation assay. Ube3a was immunoprecipitated using anti-FLAG M2 antibodies and protein G magnetic beads (NEB) and eluted in non-denaturing conditions using a 3× FLAG peptide (Sigma). 1 μg of recombinant ARC (BD Biosciences) was added to 10 μl of immunoprecipitated Ube3a in the presence of 50 ng E1 and 100 ng UbcH7 enzymes and 4 μg HA-ubiquitin (Boston Bioproducts) as in (19). Western blots were probed with anti-ARC (Santa Cruz) and quantified using ImageJ (NIH). Detailed protocols are available in the Extended Experimental Procedures.
Cortical lysates were prepared in PBS with 1% TritonX-100 and protease inhibitors, incubated with 4 μg of anti-FLAG antibodies overnight, and with 50 μl of protein G magnetic beads (NEB) for immunoprecipitation (IP). Beads were washed 5× with PBS and Ube3a-FLAG was eluted with 3× FLAG peptide (Sigma) in 100 μl PBS, and IP success was confirmed by western blot. […]

For `N[C@H](CCC(=O)NCC(=O)O)C(=O)O` [γDGG, γ-D-glutamylglycine], which “Reduction of EPSC amplitude by γ-DGG” value (non-NMDA receptor) is on record?
The value was “reduce EPSC amplitude to a greater extent in Ube3a (2×) transgenic than in wild-type neurons; also recorded: increased γDGG inhibition in Ube3a transgenic mice”.

How did the “in vitro target protein degradation assay (Arc on western blot probed with anti-ARC, quantified with ImageJ)” value (recombinant Arc [1]) turn out when “FLAG-tagged full length Ube3a (transgenic mouse Ube3a with C-terminal 3×FLAG tag, immunoprecipitated from cortical lysates of transgenic mice)” was run?
The value was “mean±SEM Wt: 1.26±0.04 vs. Tg: 0.58±0.16; P=0.01 by t test; n=3 independent in vitro assays”.

B1: transgenic Ube3a: full-length FLAG-tagged transgenic Ube3a ubiquitin ligase immunoprecipitated from transgenic mouse cortical lysate (protein, UniProt O08759 1-870, looked up)
chain: MATACKRSPGESQSEDIEASRMKRAAAKHLIERYYHQLTEGCGNEACTNEFCASCPTFLRMDNNAAAIKALELYKINAKLCDPHPSKKGASSAYLENSKGASNNSEIKMNKKEGKDFKDVIYLTEEKVYEIYEFCRESEDYSPLIRVIGRIFSSAEALVLSFRKVKQHTKEELKSLQEKDEDKDEDEKEKAACSAAAMEEDSEASSSRMGDSSQGDNNVQKLGPDDVTVDIDAIRRVYSSLLANEKLETAFLNALVYLSPNVECDLTYHNVYTRDPNYLNLFIIVMENSNLHSPEYLEMALPLFCKAMCKLPLEAQGKLIRLWSKYSADQIRRMMETFQQLITYKVISNEFNSRNLVNDDDAIVAASKCLKMVYYANVVGGDVDTNHNEEDDEEPIPESSELTLQELLGDERRNKKGPRVDPLETELGVKTLDCRKPLISFEEFINEPLNDVLEMDKDYTFFKVETENKFSFMTCPFILNAVTKNLGLYYDNRIRMYSERRITVLYSLVQGQQLNPYLRLKVRRDHIIDDALVRLEMIAMENPADLKKQLYVEFEGEQGVDEGGVSKEFFQLVVEEIFNPDIGMFTYDEATKLFWFNPSSFETEGQFTLIGIVLGLAIYNNCILDVHFPMVVYRKLMGKKGTFRDLGDSHPVLYQSLKDLLEYEGSVEDDMMITFQISQTDLFGNPMMYDLKENGDKIPITNENRKEFVNLYSDYILNKSVEKQFKAFRRGFHMVTNESPLKYLFRPEEIELLICGSRNLDFQALEETTEYDGGYTRESVVIREFWEIVHSFTDEQKRLFLQFTTGTDRAPVGGLGKLKMIIAKNGPDTERLPTSHTCFNVLLLPEYSSKEKLKERLLKAITYAKGFGML
modifications: full-length FLAG tag
notes: full-length FLAG-tagged transgenic Ube3a ubiquitin ligase immunoprecipitated from transgenic mouse cortical lysate
B1 was tested. Which “Recombinant Arc level after in vitro degradation (western blot, mean±SEM)” value (recombinant Arc [2]) did it give?
Its value is 0.58±0.16.
